Square brackets hold non-standard residues; d marks the D form. Peptide text beside a SMILES is read from it. * marks the point of attachment. X3 = O=C(CCCCCNCc1nc2c(sc3cc(Br)cnc32)c(=O)[nH]1)*
What was measured:
Test in all cases: Kinase profiling (radiometric filter-binding)
Assay type in all cases: biochemical
Aurora A = biological target: T1, Aurora A (Homo sapiens, UniProt O14965); conditions: 1 µM inhibitor, read-out: Residual activity, %
T1 sequence (O14965 1-403): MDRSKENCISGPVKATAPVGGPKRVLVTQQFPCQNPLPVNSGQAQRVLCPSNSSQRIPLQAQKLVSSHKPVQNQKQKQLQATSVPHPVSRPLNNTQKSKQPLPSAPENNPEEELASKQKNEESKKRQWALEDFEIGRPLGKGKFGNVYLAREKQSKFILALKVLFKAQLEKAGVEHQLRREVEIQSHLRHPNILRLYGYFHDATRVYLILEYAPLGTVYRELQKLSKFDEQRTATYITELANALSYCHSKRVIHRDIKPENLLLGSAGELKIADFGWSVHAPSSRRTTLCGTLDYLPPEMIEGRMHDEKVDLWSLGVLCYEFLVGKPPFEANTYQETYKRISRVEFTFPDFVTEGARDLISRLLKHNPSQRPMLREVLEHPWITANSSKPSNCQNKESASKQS
Summary of the method: (§1)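 Human kinase, ATP (≤ KM) and test compound (1 µM final) were combined; phosphorylation was quantified by radiometric filter binding. Activity left was normalised to the control reaction without compound.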

NEK6 = NEK6 (Homo sapiens, UniProt Q9HC98); conditions: NEK6, 1 µM inhibitor; read-out: Residual activity, %
Sequence of NEK6 (Q9HC98 whole entry): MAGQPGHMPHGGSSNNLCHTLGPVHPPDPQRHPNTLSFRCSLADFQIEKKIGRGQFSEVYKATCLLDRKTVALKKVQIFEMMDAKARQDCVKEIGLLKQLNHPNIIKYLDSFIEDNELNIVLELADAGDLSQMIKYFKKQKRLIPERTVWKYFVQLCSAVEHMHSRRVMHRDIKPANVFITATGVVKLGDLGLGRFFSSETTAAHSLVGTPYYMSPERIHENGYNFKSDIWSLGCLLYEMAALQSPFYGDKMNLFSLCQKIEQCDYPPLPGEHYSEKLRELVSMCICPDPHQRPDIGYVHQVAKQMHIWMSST
Summary of the method: as §1

TrkA = TrkA (Homo sapiens, UniProt P04629); conditions: 1 µM inhibitor, read-out: Residual activity, %
Sequence of TrkA (P04629 33-796): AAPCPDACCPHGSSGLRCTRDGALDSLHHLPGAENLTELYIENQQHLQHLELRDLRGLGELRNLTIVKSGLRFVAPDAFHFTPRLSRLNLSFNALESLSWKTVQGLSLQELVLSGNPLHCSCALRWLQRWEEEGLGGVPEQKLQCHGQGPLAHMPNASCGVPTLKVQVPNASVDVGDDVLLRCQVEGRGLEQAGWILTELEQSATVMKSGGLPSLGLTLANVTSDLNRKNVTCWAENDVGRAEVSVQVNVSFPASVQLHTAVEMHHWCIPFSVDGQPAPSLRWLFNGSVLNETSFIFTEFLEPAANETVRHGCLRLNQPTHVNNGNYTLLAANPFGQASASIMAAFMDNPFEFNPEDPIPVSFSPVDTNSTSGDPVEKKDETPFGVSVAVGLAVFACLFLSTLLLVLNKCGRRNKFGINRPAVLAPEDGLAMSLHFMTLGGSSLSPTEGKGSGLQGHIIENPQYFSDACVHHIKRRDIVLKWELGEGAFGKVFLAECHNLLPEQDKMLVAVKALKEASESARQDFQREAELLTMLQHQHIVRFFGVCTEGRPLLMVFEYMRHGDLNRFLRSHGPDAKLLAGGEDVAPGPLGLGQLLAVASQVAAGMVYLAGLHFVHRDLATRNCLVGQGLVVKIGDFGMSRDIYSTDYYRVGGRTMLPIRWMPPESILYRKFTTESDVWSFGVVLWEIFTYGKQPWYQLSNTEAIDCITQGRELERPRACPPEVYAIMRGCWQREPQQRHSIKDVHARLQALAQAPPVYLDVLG
Summary of the method: as §1

EPH-B2 = biological target: T2, EPH-B2 (Homo sapiens, UniProt P29323); conditions: EPH-B2, 1 µM inhibitor; read-out: Residual activity, %
T2 sequence (P29323 19-1055): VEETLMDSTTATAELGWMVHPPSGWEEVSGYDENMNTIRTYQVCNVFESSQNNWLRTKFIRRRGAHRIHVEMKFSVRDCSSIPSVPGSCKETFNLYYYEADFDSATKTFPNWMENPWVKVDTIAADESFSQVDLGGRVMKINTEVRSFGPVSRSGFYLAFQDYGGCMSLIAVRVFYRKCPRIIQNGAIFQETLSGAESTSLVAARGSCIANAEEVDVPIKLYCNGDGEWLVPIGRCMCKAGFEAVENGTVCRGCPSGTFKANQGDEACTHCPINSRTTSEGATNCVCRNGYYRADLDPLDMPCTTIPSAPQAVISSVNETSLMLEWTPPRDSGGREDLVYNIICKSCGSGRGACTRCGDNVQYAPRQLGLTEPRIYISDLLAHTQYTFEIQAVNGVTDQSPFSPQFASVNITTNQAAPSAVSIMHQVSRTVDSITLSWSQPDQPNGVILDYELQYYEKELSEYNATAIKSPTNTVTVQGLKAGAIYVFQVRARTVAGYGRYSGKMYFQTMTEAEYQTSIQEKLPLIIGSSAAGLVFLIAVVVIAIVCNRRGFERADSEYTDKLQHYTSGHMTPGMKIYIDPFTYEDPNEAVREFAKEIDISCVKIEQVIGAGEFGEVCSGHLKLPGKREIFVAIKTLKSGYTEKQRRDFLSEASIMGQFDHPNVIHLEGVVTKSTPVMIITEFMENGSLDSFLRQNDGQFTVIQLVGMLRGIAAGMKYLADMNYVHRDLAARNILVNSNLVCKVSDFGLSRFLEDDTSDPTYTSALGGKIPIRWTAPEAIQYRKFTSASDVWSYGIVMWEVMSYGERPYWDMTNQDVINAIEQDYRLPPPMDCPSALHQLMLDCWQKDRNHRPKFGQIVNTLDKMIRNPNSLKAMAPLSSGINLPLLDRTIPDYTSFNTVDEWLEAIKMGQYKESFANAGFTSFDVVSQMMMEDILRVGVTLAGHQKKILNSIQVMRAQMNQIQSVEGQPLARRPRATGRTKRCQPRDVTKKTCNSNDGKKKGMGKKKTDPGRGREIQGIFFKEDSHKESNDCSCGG
Summary of the method: as §1

EF2K = EF2K (Homo sapiens, UniProt O00418); conditions: 1 µM inhibitor, read-out: Residual activity, %
Summary of the method: as §1

MST2 = biological target: T3, MST2 (Homo sapiens, UniProt Q13188); conditions: MST2, 1 µM inhibitor; read-out: Residual activity, %
T3 sequence (Q13188 1-491): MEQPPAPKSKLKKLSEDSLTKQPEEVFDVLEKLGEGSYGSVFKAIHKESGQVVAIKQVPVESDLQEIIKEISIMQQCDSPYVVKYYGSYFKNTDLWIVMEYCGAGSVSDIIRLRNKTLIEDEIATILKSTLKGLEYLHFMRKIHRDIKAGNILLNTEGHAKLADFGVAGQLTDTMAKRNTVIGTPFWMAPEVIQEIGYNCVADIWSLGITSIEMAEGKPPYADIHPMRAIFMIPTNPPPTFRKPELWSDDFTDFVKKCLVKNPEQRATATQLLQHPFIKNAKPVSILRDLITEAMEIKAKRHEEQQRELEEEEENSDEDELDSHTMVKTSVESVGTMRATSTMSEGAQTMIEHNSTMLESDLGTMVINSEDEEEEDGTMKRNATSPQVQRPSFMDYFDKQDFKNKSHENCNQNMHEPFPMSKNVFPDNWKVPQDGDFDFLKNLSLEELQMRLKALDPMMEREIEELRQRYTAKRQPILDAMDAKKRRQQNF
Summary of the method: as §1

Structure (SMILES)	remaining activity at 1 µM (Aurora A)	remaining activity at 1 µM (NEK6)	remaining activity at 1 µM (TrkA)	remaining activity at 1 µM (EPH-B2)	remaining activity at 1 µM (EF2K)	remaining activity at 1 µM (MST2)
N=C(N)NCCC[C@@H](NC(=O)CCCCCNC(=O)Cn1cnc2c(I)c(I)c(I)c(I)c21)C(=O)N[C@H](CCCNC(=N)N)C(=O)N[C@H](CCCNC(=N)N)C(=O)N[C@H](CCCNC(=N)N)C(=O)N[C@H](CCCNC(=N)N)C(=O)N[C@H](CCCNC(=N)N)C(=O)N[C@H](CCCCN)C(N)=O [ARC-3125, TIBI-CH2-C(=O)-Ahx-(D-Arg)6-D-Lys-NH2]	84 ± 1%	97%	97 ± 7%	102 ± 8%	103 ± 1%	73 ± 1%
N=C(N)NCCC[C@@H](NC(=O)CNC(=O)[C@@H](CCCNC(=N)N)NC(=O)[C@@H](CCCNC(=N)N)NC(=O)CCCCCCCNCc1nc2c(sc3cc(Br)cnc32)c(=O)[nH]1)C(=O)N[C@H](CCCCN)C(N)=O [Compound 1, BPTP-Aoc-(D-Arg)2-Gly-D-Arg-D-Lys-NH2]	99 ± 6%	107 ± 11%	106 ± 17%	95 ± 16%	104 ± 2%	115 ± 11%
N=C(N)NCCC[C@@H](NC(=O)CCCCCNCc1nc2c(sc3cc(Br)cnc32)c(=O)[nH]1)C(=O)N[C@H](CCCNC(=N)N)C(=O)N[C@H](CCCNC(=N)N)C(=O)N[C@H](CCCNC(=N)N)C(=O)N[C@H](CCCNC(=N)N)C(=O)N[C@H](CCCNC(=N)N)C(=O)N[C@H](CCCCN)C(N)=O [ARC-3126, BPTP-Ahx-(D-Arg)6-D-Lys-NH2] (X3-[dR][dR][dR][dR][dR][dR][dK]-NH2)	132 ± 8%	85 ± 17%	112 ± 21%	107 ± 4%	85 ± 10%	106 ± 6%
N=C(N)NCCC[C@@H](NC(=O)CNC(=O)[C@@H](CCCNC(=N)N)NC(=O)[C@@H](CCCNC(=N)N)NC(=O)Cn1cc(CNCc2nc3c(sc4ccc(Br)cc43)c(=O)[nH]2)nn1)C(=O)N[C@H](CCCCN)C(N)=O [Compound 3, BBTP-Amt-(D-Arg)2-Gly-D-Arg-D-Lys-NH2]	97 ± 3%	117 ± 23%	95 ± 2%	96 ± 14%	102 ± 3%	84 ± 6%
N=C(N)NCCC[C@@H](NC(=O)CNC(=O)[C@@H](CCCNC(=N)N)NC(=O)[C@@H](CCCNC(=N)N)NC(=O)CCCCCCCNCc1nc2c(sc3ccc(Br)cc32)c(=O)[nH]1)C(=O)N[C@H](CCCCN)C(N)=O [Compound 2, BBTP-Aoc-(D-Arg)2-Gly-D-Arg-D-Lys-NH2]	106 ± 3%	126 ± 5%	128 ± 13%	100 ± 5%	98 ± 7%	128 ± 35%
